Measurements: publication PMC1885967, “The Dynamics of Signal Triggering in a gp130-Receptor Complex” (Structure(London, England:1993), 2007)

T1: Extracellular region of murine IL-11 receptor (residues 1-361) (murine, UniProt Q64385 24-361)
T1 construct: signal peptide in the construct; IL-11 receptor, murine, extracellular region, residues 1-361, expressed as a secreted soluble protein; Two copies stand in the hexameric IL-11H complex; also called soluble IL-11R; source: Drosophila S2 cells, stably transfected, secreted; purified from the media (protein A Sepharose, on-column cleavage with rhinovirus 3C protease); not shown: Fc, C-terminal, …
T1 sequence (looked up): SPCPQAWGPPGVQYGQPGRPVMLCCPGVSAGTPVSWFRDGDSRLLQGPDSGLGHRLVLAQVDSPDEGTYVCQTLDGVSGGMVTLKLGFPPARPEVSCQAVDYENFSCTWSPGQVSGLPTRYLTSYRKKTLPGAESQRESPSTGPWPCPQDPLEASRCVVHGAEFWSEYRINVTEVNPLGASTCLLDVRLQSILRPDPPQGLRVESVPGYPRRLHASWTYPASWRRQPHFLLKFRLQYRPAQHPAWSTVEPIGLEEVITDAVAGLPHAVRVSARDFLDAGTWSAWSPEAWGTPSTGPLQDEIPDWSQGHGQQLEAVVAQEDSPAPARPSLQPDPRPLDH

B1: Murine Interleukin 11 (residues 22-199) (ligand, UniProt P47873 22-199, looked up)
chain: PGPPAGSPRVSSDPRADLDSAVLLTRSLLADTRQLAAQMRDKFPADGDHSLDSLPTLAMSAGTLGSLQLPGVLTRLRVDLMSYLRHVQWLRRAGGPSLKTLEPELGALQARLERLLRRLQLLMSRLALPQAAPDQPVIPLGPPASAWGSIRAAHAILGGLHLTLDWAVRGLLLLKTRL
notes: Interleukin 11, murine, residues 22-199, subcloned into pET15b; Two copies stand in the hexameric IL-11H complex; also called IL-11
B2: Extracellular region of murine gp130 (residues 1-617) (receptor, UniProt Q00560 23-617, looked up)
chain: QLLEPCGYIYPEFPVVQRGSNFTAICVLKEACLQHYYVNASYIVWKTNHAAVPREQVTVINRTTSSVTFTDVVLPSVQLTCNILSFGQIEQNVYGVTMLSGFPPDKPTNLTCIVNEGKNMLCQWDPGRETYLETNYTLKSEWATEKFPDCQSKHGTSCMVSYMPTYYVNIEVWVEAENALGKVSSESINFDPVDKVKPTPPYNLSVTNSEELSSILKLSWVSSGLGGLLDLKSDIQYRTKDASTWIQVPLEDTMSPRTSFTVQDLKPFTEYVFRIRSIKDSGKGYWSDWSEEASGTTYEDRPSRPPSFWYKTNPSHGQEYRSVRLIWKALPLSEANGKILDYEVILTQSKSVSQTYTVTGTELTVNLTNDRYVASLAARNKVGKSAAAVLTIPSPHVTAAYSVVNLKAFPKDNLLWVEWTPPPKPVSKYILEWCVLSENAPCVEDWQQEDATVNRTHLRGRLLESKCYQITVTPVFATGPGGSESLKAYLKQAAPARGPTVRTKKVGKNEAVLAWDQIPVDDQNGFIRNYSISYRTSVGKEMVVHVDSSHTEYTLSSLSSDTLYMVRMAAYTDEGGKDGPEFTFTTPKFAQGEIE
notes: signal peptide in the construct; gp130, murine, extracellular region (domains D1-D6), residues 1-617, expressed as a secreted soluble protein; Two copies stand in the hexameric IL-11H complex; also called soluble gp130; source: human epithelial kidney 293T cells, transiently transfected, secreted; purified from the media (protein A Sepharose, on-column cleavage with rhinovirus 3C protease); not …

Key:
Assay in all cases: cryo-EM structure; three affinity-purified subunits mixed with IL-11 in molar excess, complex purified by gel filtration (Superdex 200); 5 mM HEPES pH 7.5, 100 mM NaCl, 1 mM DTT, 0.25% β-octylglucopyranoside; 1 mg/ml, vitrified; single-particle reconstruction with C2 symmetry at 30 Å, homology model (IL-6 hexamer plus FNIII repeats) fitted
[1] = molecular target: T1, Extracellular region of murine IL-11 …; details: both partners purified
[2] = molecular target: B2; details: both partners purified
[3] = molecular target: the molecule itself

Binder	binding result [1]	binding result [2]	binding result [3]
B1	binds	binds	–
B2	–	–	binds
